According to the nanobody polyreactivity screen of Harvey et al. (2022):

Test: yeast display, Sf9 membrane polyspecificity reagent, FACS + sequencing; frameworks hold sequencing errors
Outline: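 Polyreactivity labels are assigned by the sorting gate from which each nanobody was recovered. The gates were low and high (top ~1%), set on anti-HA fluorescence for expression and streptavidin fluorescence for reagent binding. Before sorting, galactose-induced (36–48 hours) yeast display cells were stained for 1 hour at 4 °C with 10% biotinylated, detergent-solubilized Sf9 membrane reagent.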

| Sequence | polyreactivity (PSR sort gate) |
| --- | --- |
| QVQLLESGGGLVQAGGSLRLSCAASGRIFLRYVMGWYRQAPGKERELVAAIRSNGGSTYADSVKGRFTSSRDNAKNTVYLHMNSLKPEDTAVYYCAARYVITKGSFVVGYGYWGQGTQVTVSS | high polyreactivity |
| QVQLLESGGGLVQAGGSLRLSCAASGRIFNYNVMGWYRQAPGKERELVAAISRRGTSTFYADSVKGRFTISRDNAKNTVYLQMNSLIPVDTAVYYCAADFYSNHYDYWGQGTQVTVSS | high polyreactivity |
| QVQLLESGGGLVQAGGSLRLSCAASGRIFVSNAMGWYRQAPGKERELVAAISKSGGRTYYADSVKGRFTISRDNAKNTVYLQMNSLKPEDTAVYYCAADIFTQGFDYWGQGTQVTVSS | high polyreactivity |
| QVQLLESGGGLVQAGGSLRLSCAASGRIFYRYAMGWYRKAPGKERELVPAISRTGSRTYYADSVKGRFTISRDNAKNTVYLQMNSLKPEDTAVYYCNKVSAPAEFRSRGYWGQGTQVTVSS | high polyreactivity |
| QVQLLESGGGLVQAGGSLRLSCAASGRTFDWNMGWYRQAPGKERELVAGITFSVDSTYYADSVKGRFTISRDNAKNTVYLQMNSLKPEDTAYWGQGTQVSVSS | low polyreactivity |
| QVQLLESGGGLVQAGGSLRLSCAASGRTFRSYVMVWYRQAPGKERELVAAISRSGGSTYYADSVKGRFTISRDNAKNTVYLQMNSLKPEDTAVYYCATKRVLTGYDSWGQGTQVTVSS | high polyreactivity |
| QVQLLESGGGLVQAGGSLRLSCAASGSIFAYYAMGWYRQAPGKERELVAAISGTGGSTNYADSVKGRFTISRDNAKNTVYLQMNSLKPEDTAVYYCAKDYSFQWRNEFNLAGEYVYWGQGTQVTVSS | low polyreactivity |
| QVQLLESGGGLVQAGGSLRLSCAASGSIFRGNAMGWYRQAPGKERELVAAISQRGTSTYYADSVKGRFTISRDYAKNTVYLQMNSLKPEDTAVYYCNALYWQIGDDYWGQGTQVTVSS | high polyreactivity |
| QVQLLESGGGLVQAGGSLRLSCAASGSTFDDYAMGWYRQAPGKEREFVAAIDWSGGSTYYADSVKGRFTISRDNAKYSVYLQMKSLKPEVTAVYYCNADPDVSFDYWGQGTQVTVSS | low polyreactivity |
| QVQLLESGGGLVQAGGSLRLSCAASGSTFEANTMGWYSQAPGKDRELVASISSSGGSTNYADSVKGRFTISRDNAKNTVYLQMNRLKQEDTAVYYCAVRCTYARWNWRTADSSRDYWGQGTQVTVSS | low polyreactivity |
| QVQLLESGGGLVQAGGSLRLSCAASGSTFPWYTMGWYRQAPGKERELVAPISNGGSTNYADSVKGRFTISRDNAKNTVYLQMNSLIPEDTAVYYCNARIPPYRWYQVSRGHGYWGQGTQVTVSS | high polyreactivity |
| QVQLLESGGGLVQAGGSLRLSCAASGSTLNVYGMGWYRQAPGQERELVAAINRDGITYADSVKGRCTISRDNAKNTVYLQMNSLKPEDTAVYYCAGDPYDNSVPGWRRNMDYWGQGTQVTVSS | low polyreactivity |
| QVQLLESGGGLVQAGGSLRLSCAASGWYRQAPGKERELVAAITYSGGSTYYADSVKGRFTISRDNAKNTVYLQMNSLKPEDTAVYYCAVATGLLYKSHGYWGQGTQVTVSS | low polyreactivity |
| QVQLLESGGGLVQAGGSLRLSCAASGYIILRNAMGWYRQAPGKERELVAAIRRTGGSTYYADSLKGRFTISRDNAKNTVYLLLNSLKPEDTAVYSCAKRSYTGFEYWGQGTQVTVSS | low polyreactivity |
| QVQLLESGGGLVQAGGSLRLSCAATGRIFAPYTMGWYRQAPGTEMEMFAVISKRGGNTYYADSVKGRFTISRDNAKNTVYLQMNSLKPEATAVYFCNADWQFRVYLGGPGTHGYDYWGQGTQVTVSS | low polyreactivity |
| QVQLLESGGGLVQAGGSLRLSCAPSGRTLVHYGMGWYRHAPGKERELVAAISYSGGRTYYADSVKGRVTISRDNAKNTVYLQMNSLKPEDTAVYYCAKDFGSYQRRYGYWGQGTQVTVSS | high polyreactivity |
| QVQLLESGGGLVQAGGSLRLSCMASGSILGDRMSWYLQPPGKEHELVATIYDGGITYYADSMKGRFTISRDNAKNTVYLQMNSLRPEDTAVYYCGASFEGYRYNVYCGQGTQVTVSS | low polyreactivity |
| QVQLLESGGGLVQAGGSLRLSCMASGSILGDRMSWYRQAPGKEHELVATIYDGGITYYADSMKGRFTISRDNAKNTLYLQMNSLRPEDTAVYYCGACFEGYRYHVYCGQGTQVTVSS | low polyreactivity |
| QVQLLESGGGLVQAGGSLRLSCPPSGFIFPRNVMGWYRQAPGKERELVAAISRSGGSTYYADSVKGRYTISRDNAKNTVYLQLNSQKPEDTAVYYCAAEIPVYQGTGDYDYWGQGTQVTVSS | low polyreactivity |
| QVQLLESGGGLVQAGGSLRLSFAASGSTSRKYAMGLYRQAPGKERVLVAGITKGGGGTYYADSVKGRFTISRDNAKNTVYLLMNSLKPEDTAVYYCAKYYGSGYYIYDYWGLGTQVTVSS | low polyreactivity |
| QVQLLESGGGLVQAGGSLRLTCAASGRTFGRYAKGWYRQAPGKERELVADITGGGSTNYADSVKGRFTISRDNAKNTVYLQMKSLKPEDTAVYYCAAGFHKRVTPEILYDYWGQGTQVTVSS | low polyreactivity |
| QVQLLESGGGLVQAGGSLRLTCAASGSTFRYNAMGWYRQAPGKERELVAAISSGSSTNYADSVKGRFTLSRDNAKNTVYLQMNSLKPEDTAVYYCAAQPGYYDDFYYWGQGTQVTVSS | low polyreactivity |

| Sequence | polyreactivity (PSR sort gate) |
| --- | --- |
| QVQLLESGGGLVQAGRSLRLSCAASGSIFRSYAMGWSRQAPGKERELVAAISRRGGSTYYADSVKGRFTISRDNAKNTVYLQMNSLKPEDTAVYYCAADRTGPYDYWGQGTQVTVSS | high polyreactivity |
| QVQLLESGGGLVQEGGSLRLSCAASGFIFSKNVMGWYRHAPGKERELVARITRSGGTTYYADSVKGRFTISRDNAKYTVYLQMNSLKPEDTAVYYCAARRYGYTSITWYDYWGQGTQVTVSS | high polyreactivity |
| QVQLLESGGGLVQEGGSLRLSCAASGSTFHSYAMGWYRQAPGKERELVAGINRTGGSTYYADSVKGRFTISRDNAKNTVYLQMNSLKPEDTAVYYCAAVSYYASVYRYDYWGQGTQVTVSS | low polyreactivity |
| QVQLLESGGGLVQPGGSLRLSCAASGRTFRLNGMGWNRQAPGKERELVAAITWSGGRTYYADSVKGRFTISRDNAKKTVYVQMNSLTPEDTAVYYCAADFRDGFTSRYGYWGQGTQVTVSS | high polyreactivity |
| QVQLLESGGGLVQSGGSLRLSCAASGRNFTPYAMGWYRQAPGKERELVAAITGSGGITYYADSVKGRFTISRDNAKNTVYFQMNSLKPVDTAVYYCAKDWWQSDSVGDYTHYEYDYWGQGTQVTVSS | low polyreactivity |
| QVQLLESGRGLVQAGGSLRLSCAASGRTFVGYAMVWYRKAHGKERELVAGITASGGTTYYADSVKGRFTISRDNAKNTVYLQMNSLKPEDTAVYYCATTTTRYRYKKNYYWGQGIQVTVSS | high polyreactivity |
| QVQLLESGRGLVQAGGSLRLSCAPSGLTFRYMAMGWYIQAPGKERELVAAINSGGRTNYADSVKGRFTISRDNAKNTVFLQMNSLKPEDTAVYYCAAVRHWTVGWTYYYWGQGTQVTVSS | high polyreactivity |
| QVQLLESWGGLVHAGGSVRLSCAASGSIFGYNAMGWYRESPGKEREWVAAISWDGGSTYYADSVKGRFTISRDNAKYNVFLQMNSLKPEDTAVYYCAAEGLRFVYEYWGQGTQVTVSS | low polyreactivity |
| QVQLLESWGGLVQAGGSLRLSCAASGSIFSYYAMGWYRQAPGKERELVATISSGDSTYYADTVKGRFTISRDNAKNTVYLQMHSLNPEDTEVYYCARKPRIRYYPAPYDYWGQGTQVTVSS | low polyreactivity |
| QVQLLETGGGLVQAGGSLRLSCAASGSIFSRNDMGWYRPAPGKERELVAAITWSGGSTYYADSVKGRFTISRDNAKNTVYLQMNSLKPEDTAVYYCATRYTRVYDCWGQGTLVTVSS | high polyreactivity |
| QVQLLGSGGGLVQACGSLRLSCSASGSISHYIFMGWYRQAPAKEREFVAGIGYGGTTNYADSVKGRFTISRDNAKNTVYLQMNSLKPEDTAMYYCAAREATAFYLYYCGQGTQVTVSS | low polyreactivity |
| QVQLQASGVGLVQSGGSLRLSCASRGTNFTARFMGWYRQAPGKERELVATITDGGNTNHADRVKGRFTISRDNAKNTVYLQMNSLKPEDAAVYYCAAGEVDNDTLLYWGQGSQVTVSS | low polyreactivity |
| QVQLQEGGGGLVQAGGSLRLSCAASGYISYGDVMGWYRQAPGEERELVASIGLDATTNYADSVKGRFTISRDNAKITVYLQMNSLKPEATAVYYCAADVGSGVMCGYWGQGTQMTVSS | high polyreactivity |
| QVQLQEGGGLVQAGGSLRLSCAASGYISSRPAMGWYRQAPGKERAFVATIADGTSTYYADSVKGRFTISRDNAINTVYLQMNSLKPEDTSVYYWAAAYNTEFDLSYWGQGTQVTVSS | high polyreactivity |
| QVQLQEGGGLVQAGGSLRLSCAASGYISSRPAMGWYRQAPGLERAFVATIADGTSTDYADSVKGRFTISRDNAKNTVYLQMYRLQPEDTAVNYCAAAYNTQYYLSYWGQGTQVTVRS | high polyreactivity |
| QVQLQERAAWCRRAGSLRLSCAASGNISDYYFMGWYRQAPGKERELVAAIAPGSNTYYADSVKGRFTISRDNAKNTVYLQMNSLKPEDTAVCFCAADSTQYTWFDYWGQGTQVTVSS | low polyreactivity |
| QVQLQESAGGLVQAGGSLRLRCSASGYSSCDASMGWYRQAPGKERELAASITKGSSTNYADSVKGRFTIRDNAKNTVYLQMNSLKPEDTAVWYCGVTYPYWGDYTYWGKGTQVTVSS | low polyreactivity |
| QVQLQESAGVLVQAGGSLRLRCSASGYISCHASMGWYRQAPGKEGELAASITKGSSTNYADSVKGRFTIRDNAINTVFLQMNSLKPEDTAVCYCAVTYPYWGDYTYWGQGTQVTVSS | low polyreactivity |
| QVQLQESCGGLVQAGGSLRLSCAASGTIITARFMGWYRQAPGKERELVATITDGGNNNHAESVKGRFTISRDNAKNTVYLQMNSLKPEDAAVYYCAAGEVDNDTLLYWGQGSQVTVSS | low polyreactivity |
| QVQLQESGDGLVQAVGSLRLSCAASGNISGDYYMGWYRQAPGKERELVAGIDAFGSSTNYADCVKGRFTISRDNAKNTVYLQMNRLKPEDTAVYYCAARPDGDRLFSYWGQGTQVTVSS | low polyreactivity |
| QVQLQESGDGLVQAVGSLRLSCAASGYISGYYYMGWYRQAPGKERELVAGIDAFGSSTNYADCVKGRFTISRDNAKNTVYLQMNSPNPEDTAVYYCAAEFDDWDYHSYWGQGTQVSVSS | low polyreactivity |
